Experimental data published in patent US20230406907A1 (SORRENTO THERAPEUTICS, published 2023).

Target: SARS-CoV-2 S1 subunit (amino acids 16-685 of SEQ ID NO:1, i.e. SEQ ID NO:4) with a carboxy terminal … (SARS-CoV-2, UniProt P0DTC2 16-685)

B1: antibody S1D2 (fully human recombinant monoclonal IgG1, no Fc mutation) (antibody, V domains shown)
VH: EVQLVESGGGLIQPGGSLRLSCAASGFTVSSNYMSWVRQAPGKGLEWVSIIYPGGSTNYADSVKGRFTISRDNSRNTLYLQMNSLRAEDTAVYYCARELGYYGMDVWGQGTTVTVSS
VL: DIQMTQSPSSVSASVGDRVTITCRASQGISTWLVWYQQKPGKAPNLLIYGASSLQSGVPSRFSGSGSGTDFTLTISSLQPEDFATYYCQQANSFPYTFGQGTKLEIK
With B1 the IC50 was 1.87 nM.
